Results published in paper PMC4752726.
Each block holds one substance with its values, some of them ahead of it.

Columns and labels:
Test in all cases: BLI
[1] = biological target: C-terminally biotinylated FcγRIIIa made from FcγRIIIa-ST-H6 by sortase-mediated ligation (human) (UniProt P08637)
[2] = biological target: GlcNAc-IgG1 Fc glycoform (GlcNAc-Fc) (human)
[3] = biological target: Man5-IgG1 Fc glycoform (Man5-Fc) (human)
[4] = biological target: High mannose IgG1 Fc (HM-Fc), di-glycosylated form (human)

Kd [1]: 995 nM
koff [1]: 0.161 s⁻¹
Substance: GlcNAc-IgG1 Fc glycoform (GlcNAc-Fc) (domain or fragment)

Kd [1]: 26.4 nM
koff [1]: 0.0079 s⁻¹
Substance: High mannose IgG1 Fc (HM-Fc), di-glycosylated form (domain or fragment)

Kd [1]: 32.8 nM
Substance: Man5-IgG1 Fc glycoform (Man5-Fc) (domain or fragment)

Substance: soluble domain of FcγRIIIa with a C-terminal histidine tag (FcγRIIIa-H6) (receptor)
Kd [2]: 1120 nM
koff [2]: 0.14 s⁻¹
kon [2]: 120000 M⁻¹ s⁻¹
Kd [3]: 31.8 nM
koff [3]: 0.0051 s⁻¹
kon [3]: 160000 M⁻¹ s⁻¹
Kd [4]: 27.7 nM
koff [4]: 0.0054 s⁻¹
kon [4]: 190000 M⁻¹ s⁻¹
